Laboratory results published in patent US20170014503A1.
Where no end group is shown, it is not given here.

Target: 2F5 mAb
Experiment: cell-based or functional assay

B1: SP62 peptide gp41 652-671, biotinylated (peptide)
peptide: QQEKNEQELLELDKWASLWN
modifications: not fully specified
IC50 of 2F5 mAb against TND-669S Env-pseudovirus after pre-absorption with 0.3 µM peptide: 0.911
